The text below walks through data of patent publication US20180256699A1.

Assay [1] deals with Recombinant soluble murine αMβ2 integrin (R&D Systems) (murine) (UniProt P05555). As to the kind of experiment: ELISA, murine αMβ2 integrin coated, ACT serially diluted, with calcium, rabbit anti-ACT detection.
The target in assay [2] is αMβ2 integrin on J774A.1 murine macrophage cells (murine) (UniProt P05555). As to the kind of experiment: flow cytometry: biotinylated ACT on J774A.1 cells on ice, no scAb, detected with streptavidin-PE; background: cells only 274, non-biotinylated ACT 292.
Assay [3] addresses Recombinant soluble murine αMβ2 integrin (R&D Systems) (murine) (UniProt P05555). As to the kind of experiment: ELISA, murine αMβ2 integrin coated, domain serially diluted, with calcium, rabbit anti-ACT detection. In general terms: ELISA stands for enzyme-linked immunosorbent assay.

What is called EC50 is the concentration that produces a half-maximal response.

Regarding “Bordetella adenylate cyclase toxin (ACT), full-length, acylated (from UniProt J7QLC0 1-1706)”, in assay [1], the EC50 was 20 nM. In addition, in assay [2], the mean fluorescence (PE-A) came out at 4810.

“RTX751*, RTX domain of ACT, residues 751-1706, acylated (from UniProt J7QLC0 751-1706)”: the EC50 in assay [3] was determined as 20 nM.
